Laboratory results from article PMC9482655 (2022).

B1: IZUMO1 ectodomain (BLI analyte) (domain or fragment)
chain: CVICDPSVVLALKSLEKDYLPGHLDAKHHKAMMERVENAVKDFQELSLNEDAYMGVVDEATLQKGSWSLLKDLKRITDSDVKGDLFVKELFWMLHLQKETFATYVARFQKEAYCPNKCGVMLQTLIWCKNCKKEVHACRKSYDCGERNVEVPQMEDMILDCELNWHQASEGLTDYSFYRVWGNNTETLVSKGKEATLTKPMVGPEDAGSYRCELGSVNSSPATIINFHVTVLPKMIKEEKPSPNIVTPGEATTESSISLQPLQPEKMLASR
B2: JUNO ectodomain (BLI analyte; target protein of the pull-down) (domain or fragment)
chain: GDELLNICMNAKHHKRVPSPEDKLYEECIPWKDNACCTLTTSWEAHLDVSPLYNFSLFHCGLLMPGCRKHFIQAICFYECSPNLGPWIQPVGSLGWEVAPSGQGERVVNVPLCQEDCEEWWEDCRMSYTCKSNWRGGWDWSQGKNRCPKGAQCLPFSHYFPTPADLCEKTWSNSFKASPERRNSGRCLQKWFEPAQGNPNVAVARLFAS

How the values were obtained:
[1] = target: JUNO ectodomain, biotin-labelled, sensor-bound (UniProt A6ND01 20-228, biotin on free lysine residues (EZ link sulfo-NHS-LC-biotinylation kit, 1:1 protein to biotin ratio)); experiment: BLI
[2] = target: IZUMO1 ectodomain, biotin-labelled, sensor-bound (human, UniProt Q8IYV9 22-292, biotin on free lysine residues (EZ link sulfo-NHS-LC-biotinylation kit, 1:1 protein to biotin ratio)); experiment: BLI

Binder | Kd [1] [nM] | Kd [2] [nM]
B1 | 36.8 | –
B2 | – | 14.2
